Laboratory results published in article PMC4688034 (Cell Reports, 2015).

Columns and labels:
[1] = biological target: fluorescein-…pSQEY (γH2AX phosphopeptide) (human); experiment: fluorescence polarisation
γH2AX foci in HeLa cells = experiment: γH2AX focus formation after irradiation; format: cell-based; settings: 10 μM inhibitor, 1 hr prior to 3 Gy IR, fixed 30 min later
53BP1 BRCT2 domain = 53BP1 BRCT2 domain (UniProt Q12888); experiment: fluorescence polarization titration; settings: reference: pS139 peptide, untreated; sites S139

## His6-SUMO-53BP1-BRCT2 (domain or fragment)
[1]
  Kd: 1400 nM
His6-SUMO-53BP1-BRCT2
  stoichiometry N: 2

## O=c1cc(-c2cccc3c2Sc2ccccc2S3)oc(N2CCOCC2)c1 [KU55933]
γH2AX foci in HeLa cells
  γH2AX focus formation on irradiation: substantially diminished

## H2AX (γH2AX when phosphorylated on Ser139) C-terminal 13 residues, 130-142 (from UniProt P16104) λ-phosphatase treated peptide
53BP1 BRCT2 domain
  KD: lost; reference 1.4 ± 0.15
